T1: human 2B4-Fc fusion protein (human, UniProt Q9BZW8 22-229)
T1 construct: also called h2B4-Fc; h2B4
T1 sequence: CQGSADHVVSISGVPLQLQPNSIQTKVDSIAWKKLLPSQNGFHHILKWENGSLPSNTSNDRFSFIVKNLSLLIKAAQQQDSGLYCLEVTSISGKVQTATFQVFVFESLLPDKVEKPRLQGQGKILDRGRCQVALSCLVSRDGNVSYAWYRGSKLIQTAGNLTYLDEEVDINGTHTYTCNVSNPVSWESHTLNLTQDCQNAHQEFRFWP


Tests used:
[1] = target: T1, human 2B4-Fc fusion protein; test: SPR; details: both partners purified
[2] = target: T2, A. trivirgatus 2B4-Fc fusion protein (Aotus trivirgatus); test: SPR; details: both partners purified
T2 construct: also called host 2B4-Fc; aoCD244-Fc

Row | Binder | Kd [1] [nM] | fold higher affinity than hCD48 [1] [fold] | fold slower dissociation than hCD48 [1] [fold] | koff [1] [s⁻¹] | kon [1] [M⁻¹ s⁻¹] | Kd [2] [nM] | fold slower dissociation than host CD48 [2] [fold] | koff [2] [s⁻¹] | kon [2] [M⁻¹ s⁻¹]
1 | A43-Fc fusion protein (Fc fusion, Wild-type viral ectodomain. The human IgG1 Fc carrier (dimerising) and CD33 leader are left out. The C-terminal limit follows from the printed membrane-proximal region 214-225, so Ig2 ends at …) VNIVNALVGGNITLNISESLPENVREITWFCTYDQKIADWDVKRLKYFDNKFKGRVRLDSQSGALYLSRVQKEDANIYIMRVLKDTMFEQDWKIRLQVFDEVDTPNITLVNTTLISDTCYVNFSCSHHDSLCYTSNENCTWYHFSQNITKTPPWNHSASSNSCYTCEFKNPVHRKNITMCISGCGQT | 3.6 | 6 | 55 | 0.000405 | 169000 | 1.3 | 2.6 | 0.000188 | 116000
2 | A. trivirgatus CD48-Fc fusion protein (Fc fusion, biotin (biotinylated host CD48-Fc in the blocking ELISA)) TSIQGNSVDVINAISGGNVTLNISESLPENVREITWFCTYHQKIADWDVKRLKYFDNKFKGRVRLDYQSGALYISKIQKEDANIYIMRVLKETMYEQEWKIRLQVFDPVPKPDIKIEKTAKVEDDCYLKLSCVIPDESVNYTWYGDKEPFPKEFQSGVLETTLKSQDYSRCYTCQVSNPVSSKNDTVCFS |  |  |  |  |  | 3.3 |  |  | 
